Laboratory results as given in patent US20140274901A1, “PROANP COMPOSITIONS AND METHODS FOR TREATING ACUTE HEART FAILURE” (Mayo Foundation for Medical Education and Research, priority 2013, published 2014).
Where two headings read alike, the source gives them in different places.

Assays:
cGMP = assay: Plasma and urinary cGMP after bolus intravenous injection in normal canines; format: in vivo, canine; settings: for PcGMP AUC / PcGMP Cmax: plasma cGMP; for PcGMP AUC / PcGMP Cmax / UcGMP AUC / UcGMP Cmax: intravenous bolus 667 pmol/kg; for UcGMP AUC / UcGMP Cmax: urinary cGMP excretion
Experimental: (§1) The samples were ether extracted four times in 4 volumes of ether, dried, and reconstituted in 300 ul cGMP assay buffer, and the cGMP levels were measured using a competitive RIA cGMP kit (Perkin-Elmer, Boston, Mass.).

[1] = Hemodynamic and renal actions after bolus intravenous injection in normal canines; format: in vivo, canine
Experimental: Blood samples were obtained from aorta and renal vein and urine is obtained before and 2.5, 5, 10, 15, 30, 60, 120, and 180 min after injection.
(§3) The in vivo effects of canine proANP, ANP1-28, and BNP1-32 were examined in normal canines (FIG. 6).

[2] = Pharmacokinetic analysis of NP immunoreactivity after bolus intravenous injection in normal canines
Experimental: (§4) Blood samples were obtained from aorta and renal vein and urine is obtained before and 2.5, 5, 10, 15, 30, 60, 120, and 180 min after injection. […] These doses were similar to doses of carperitide/nesiritide in clinical use.
(§5) Canine ANP1-28 and NT-proANP concentrations are determined by specific immunoassays as described elsewhere (Ichiki et al., Clin Chem, 2011, 57:40-47; Ichiki et al., 2012, supra; Chen et al., J Am Coll Cardiol, 2000, 35:240A; and Chen et al., Am J Physiol Regul Integr Comp Physiol, 2005, 288:R1093-1097).
as §3

in vivo = settings: dog, iv, 667 pmol/kg
Experimental: as §4, §5, §3

[3] = tested on: human cardiac fibroblasts (CFs); assay: cGMP production in human cardiac fibroblasts; format: cell-based; settings: 10^−7 M
From the text: (§2) FIGS. 5A-5D depict proANP effects in vitro. FIG. 5A is a pair of graphs plotting cGMP production in GC-A or GC-B overexpressing HEK293 cells treated with proANP, proBNP, or mature ANP or BNP, as indicated. *p<0.05 vs. non-treated cells. FIG. 5B is a pair of graphs plotting cGMP production in GC-A or GC-B overexpressing HEK293 cells treated with proANP (10^−8 M) in serum or PBS, as indicated. *p<0.05 vs. non-treated cells. †p<0.05 vs. PBS-treated proANP. FIG. 5C is a series of photographs showing immunocytochemistry for collagen type I (Col I), GC-A, and corin in cardiac fibroblasts (CFs). NHS served as a negative control. Magnification is 100×. FIG. 5D is a graph plotting the time course of cGMP production in CFs treated with ANP or proANP (10^−7M). […] Data are mean±SEM.
as §1
Further studies utilized human CFs in which GC-A and proANP convertase corin exist (FIG. 5C).

GC-A = target: T1, GC-A (Homo sapiens, UniProt P16066); assay: cGMP production in HEK293 cells overexpressing GC-A; format: cell-based
T1 construct: expressed in transfected cells; host or cells: HEK293
T1 sequence (P16066 33-1061): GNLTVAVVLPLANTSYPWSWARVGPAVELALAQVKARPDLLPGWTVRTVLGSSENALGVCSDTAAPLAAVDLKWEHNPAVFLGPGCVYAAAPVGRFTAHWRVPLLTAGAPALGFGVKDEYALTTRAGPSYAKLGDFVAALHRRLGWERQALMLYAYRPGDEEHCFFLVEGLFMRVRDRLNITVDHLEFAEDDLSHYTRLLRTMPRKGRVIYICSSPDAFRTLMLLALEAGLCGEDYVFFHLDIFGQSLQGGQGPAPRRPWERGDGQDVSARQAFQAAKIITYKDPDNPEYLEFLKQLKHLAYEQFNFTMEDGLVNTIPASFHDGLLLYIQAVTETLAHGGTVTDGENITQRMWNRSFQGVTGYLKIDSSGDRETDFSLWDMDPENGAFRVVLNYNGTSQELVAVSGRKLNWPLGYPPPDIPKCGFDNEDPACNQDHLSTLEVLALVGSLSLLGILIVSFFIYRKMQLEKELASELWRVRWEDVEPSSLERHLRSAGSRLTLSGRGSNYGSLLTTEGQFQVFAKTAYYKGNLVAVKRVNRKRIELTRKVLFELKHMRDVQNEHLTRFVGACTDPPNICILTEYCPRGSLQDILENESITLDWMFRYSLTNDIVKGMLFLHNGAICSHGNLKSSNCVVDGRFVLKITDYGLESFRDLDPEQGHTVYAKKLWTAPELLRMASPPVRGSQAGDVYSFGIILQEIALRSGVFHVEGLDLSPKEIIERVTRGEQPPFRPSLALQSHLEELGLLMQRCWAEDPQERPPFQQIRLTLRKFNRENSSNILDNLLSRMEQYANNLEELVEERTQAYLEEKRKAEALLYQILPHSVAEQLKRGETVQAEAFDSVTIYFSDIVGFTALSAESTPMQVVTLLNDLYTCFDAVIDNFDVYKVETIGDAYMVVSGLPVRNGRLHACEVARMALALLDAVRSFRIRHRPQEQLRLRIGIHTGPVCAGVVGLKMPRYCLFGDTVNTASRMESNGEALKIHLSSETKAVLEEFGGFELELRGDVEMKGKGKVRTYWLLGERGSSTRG
From the text: as §2, §1

[4] = Processing and degradation of His-tagged proANP in human serum ex vivo
Experimental: Exogenous proANP was incubated in human serum at 37° C. Processed and unprocessed proANP peptides were isolated by immunoprecipitation using His-tag beads, followed by detection via Western blotting with 6×His antibody. […] FIG. 4C is a graph plotting densitometric analysis of processed ANP1-28 from proANP that was incubated in serum from normal subjects and HF patients for the indicated times. Values are mean±SEM. *p<0.05 vs. 0 min.

[5] = 667 pmol/kg intravenous, comparison of the three NPs
[6] = normal canines, 667 pmol/kg intravenous

## CC[C@H](C)[C@@H]1NC(=O)[C@H](CCCNC(=N)N)NC(=O)[C@H](CC(=O)O)NC(=O)[C@H](CCSC)NC(=O)[C@H](CCCCN)NC(=O)[C@H](CCCNC(=N)N)NC(=O)CNC(=O)[C@H](Cc2ccccc2)NC(=O)[C@@H](NC(=O)CNC(=O)[C@H](CO)NC(=O)CNC(=O)[C@H](CCC(N)=O)NC(=O)[C@@H](NC(=O)[C@H](CCSC)NC(=O)[C@H](CCCCN)NC(=O)[C@@H]2CCCN2C(=O)[C@@H](N)CO)C(C)C)CSSC[C@@H](C(=O)N[C@@H](CCCCN)C(=O)N[C@H](C(=O)N[C@@H](CC(C)C)C(=O)N[C@@H](CCCNC(=N)N)C(=O)N[C@@H](CCCNC(=N)N)C(=O)N[C@@H](Cc2c[nH]cn2)C(=O)O)C(C)C)NC(=O)CNC(=O)[C@H](CC(C)C)NC(=O)CNC(=O)[C@H](CO)NC(=O)[C@H](CO)NC(=O)[C@H](CO)NC(=O)[C@H](CO)NC1=O [BNP, B-type natriuretic peptide, reference compound]
cGMP
  PcGMP AUC: 13406.9 pmol·min/mL
  PcGMP Cmax: 255.4 pmol/mL
  UcGMP AUC: 207454 pmol·min/mL
  UcGMP Cmax: 6936.2 pmol/mL
[1]; [5]
  effect on blood pressure (BP): greatest effect
[2]; dog, plasma, iv, 667 pmol/kg
  AUC: 0.0517 nM·h
  Cmax: 0.43 nM
  Tmax: 2 min
  half-life: 3.7 min
[2]; [6]
  decline of plasma immunoreactivity after the peak: decreased rapidly

## CC[C@H](C)[C@@H]1NC(=O)[C@H](CCCNC(=N)N)NC(=O)[C@H](CC(=O)O)NC(=O)[C@H](CCSC)NC(=O)[C@H](CCCNC(=N)N)NC(=O)CNC(=O)CNC(=O)[C@H](Cc2ccccc2)NC(=O)[C@@H](NC(=O)[C@H](CO)NC(=O)[C@H](CO)NC(=O)[C@H](CCCNC(=N)N)NC(=O)[C@H](CCCNC(=N)N)NC(=O)[C@H](CC(C)C)NC(=O)[C@@H](N)CO)CSSC[C@@H](C(=O)N[C@@H](CC(N)=O)C(=O)N[C@@H](CO)C(=O)N[C@@H](Cc2ccccc2)C(=O)N[C@@H](CCCNC(=N)N)C(=O)N[C@@H](Cc2ccc(O)cc2)C(=O)O)NC(=O)CNC(=O)[C@H](CC(C)C)NC(=O)CNC(=O)[C@H](CO)NC(=O)[C@H](CCC(N)=O)NC(=O)[C@H](C)NC(=O)CNC1=O [ANP, atrial natriuretic peptide]
In vivo
  AUC: 0.2 nM·h
  Tmax: 2 min

B1: proANP (protein, listed as Homo sapiens)
chain: NPMYNAVSNADLMDFKNLLDHLEEKMPLEDEVVPPQVLSEPNEEAGAALSPLPEVPPWTGEVSPAQRDGGALGRGPWDSSDRSALLKSKLRALLTAPRSLRRSSCFGGRMDRIGAQSGLGCNSFRY
modifications: His tag in serum
notes: 126 amino acid pro form of atrial natriuretic peptide
cGMP; 667 pmol/kg intravenous
  AUC for plasma cGMP (PcGMP) relative to ANP or BNP: less than that for ANP or BNP
  AUC for urinary cGMP excretion (UcGMP) relative to ANP or BNP: twice that of ANP or BNP
cGMP
  PcGMP AUC: 6110.5 pmol·min/mL
  PcGMP Cmax: 93.8 pmol/mL
  UcGMP AUC: 420368 pmol·min/mL
  UcGMP Cmax: 7027.8 pmol/mL
[1]; 667 pmol/kg intravenous
  effect on cardiac output: less than that of either ANP or BNP
  effect on renal blood flow: less effect on renal blood flow
[1]; [5]
  diuretic and natriuretic actions (urine volume, urinary sodium excretion): strongest and longest
  effect on blood pressure (BP): less of an effect on BP as compared to the other two NPs
[1]; first 90 minutes, then increased by about 120 minutes
  effect on heart rate: less than that of ANP or BNP
[3]; after 60 minutes
  cGMP production relative to ANP: about equal
[3]; all time points
  cGMP levels compared to 0 minutes: significant increases in cGMP levels
[3]; first 30 minutes
  cGMP production relative to ANP: about half as much as ANP
[2]; NP immunoreactivity, normal canines, equimolar intravenous bolus 667 pmol/kg
  NPi AUC: 28.1 pmol·min/mL
[2]; [6]
  AUC for NP immunoreactivity relative to ANP: twice that of ANP
  decline of plasma immunoreactivity after the peak: decreased more slowly than ANP or BNP
  time of peak plasma immunoreactivity after injection: 2 min
[2]; normal canines, equimolar intravenous bolus 667 pmol/kg
  half-life: 20.7 min
[2]; normal canines, pharmacokinetic analysis
  half-life relative to ANP: about 4 times
[2]; read-out: NPi Cmax, NP immunoreactivity, normal canines, equimolar intravenous bolus 667 pmol/kg
  Cmax: 0.96 nM
GC-A; HEK293 cells overexpressing GC-A
  cGMP production: lower than ANP but much higher than proBNP
GC-A; proANP 10^−8 M, treated in serum 5 minutes, versus untreated proANP
  cGMP production by proANP treated in serum for 5 minutes: stimulated cGMP production significantly as compared to untreated proANP
GC-A; proANP 10^−8 M, treated in serum 180 minutes
  cGMP production by proANP treated in serum for 180 minutes: decreased
[4]; His-tagged proANP, 37° C., 5 minute incubation, normal serum
  processing of proANP in normal human serum: processed into ANP1-28
[4]; serum from HF patients
  proANP processing into ANP1-28 in HF serum compared to normals: preserved
